From patent US20160000054A1, “HUMAN-DERIVED MUTANTS OF THE dSOD1 GENE IN DROSOPHILA AND METHODS OF MAKING AND USING” (priority 2014, published 2016)

Key:
Format in all cases: in vivo, Drosophila melanogaster
dSod1-G85R mutants = experiment: Spontaneous motor neuron activity recorded from larval muscles with motor circuit intact; conditions: expression of Gbb
From the text: Consistent with the reduced motility observed in dSod1-G85R late 3rd instar larvae, there was a concordant reduction in the spontaneous activity of MNs when recorded from larval muscles in preparations with the motor circuit intact (brain and ventral nerve cord (VNC) remain attached to the body wall muscles). […] These analyses, coupled with studies on muscle structure can provide a well-defined depiction of disease progression. While ALS paralysis results from a dramatic degeneration of MNs and atrophied muscles, it is unclear when and where the decline in function originates. It could begin in a specific set of cells or the loss of function could be a systemic effect. This can be addressed using the Drosophila model system disclosed herein. For example, directed expression of channel-rhodopsin (ChR2) to specific cells or neurons can be done, followed by excitation of those cells with a flash of light and recording of the response in the circuit output of a particular larval muscle. Driving UAS-ChR2 within different neurons (OK371Gal4 in motorneurons, ChaGal4 in cholinergic neurons, specific neural Gal4 lines from Janeila Farm collection) (55) can be done to address the integrity of the neural circuit and interrogate the function of individual neurons.
Gbb, the Drosophila orthologue of vertebrate BMPs 5, 6, 7, acted as a retrograde signal at the NMJ (56). […]

[1] = test system: dSod1-G85R and dSod1-H71Y mutant larvae; experiment: Larval locomotor (motility) defect in dSod1 mutant larvae; conditions: expression of Gbb
From the text: (§1) The genetically accurate model of ALS disclosed herein, can be used to elucidate not only the behavioral and electrophysiological changes, but also the cellular and molecular basis of disease progression. ALS-associated loss in motor neuron function and subsequent cell death has been attributed to defects in a number of processes from protein aggregation, increases is axonal membrane excitability, mitochondrial dysfunction, to changes in RNA metabolism and general metabolic homeostasis (49-55). This model system was used to explore the involvement of these processes in disease progression. […] The time of death varied between the different dSod1 mutations with <0.1% dSod1-G85R adults emerging from the pupal case (a feat requiring considerable muscle strength) to 33% emergence by the less severe dSod1-H71Y followed by death within 7-10 days of adulthood. […] Characterization of this progressive loss in motor function in detail during can be performed using immunohistochemical markers of muscle, as well as Drosophila lines expressing GFP-tagged muscle proteins (Mhc-mCD8-GFP) that allow visualization of muscles in living animals. Examination of the innervation of the muscles in controls and mutants is done by concomitant labeling of the MNs (CD8-RFP driven in MNs). […]

G85R/H71Y = experiment: Adult eclosion (emergence from the pupal case); conditions: G85R/H71Y flies; expression of Gbb; 15% without Gbb
From the text: as §1

B1: Gbb: the Drosophila orthologue of vertebrate BMPs 5, 6, 7; expressed genetically in the flies, not dosed (protein, UniProt P27091 336-455, looked up)
Protein 60A: SVSPNNVPLLEPMESTRSCQMQTLYIDFKDLGWHDWIIAPEGYGAFYCSGECNFPLNAHMNATNHAIVQTLVHLLEPKKVPKPCCAPTRLGALPVLYHLNDENVNLKKYRNMIVKSCGCH
For B1, the “spontaneous MN activity” value (dSod1-G85R mutants) was “restored normal spontaneous MN activity”, the locomotor defect ([1]; dSod1-G85R mutant larvae) was “rescued” and the locomotor defect ([1]; dSod1-H71Y mutant larvae) was “rescued”. The eclosion (G85R/H71Y) was 45%.
